Experimental data: patent publication US20080311122A1 (AstraZeneca / MedImmune, published 2008)

T1: recombinant HMG1 purified from E. coli as a calmodulin binding protein (CBP) fusion protein (human, UniProt A9RA84 1-215 (Papio anubis entry))
T1 construct: also called rHMG1; rHMGB1
T1 sequence: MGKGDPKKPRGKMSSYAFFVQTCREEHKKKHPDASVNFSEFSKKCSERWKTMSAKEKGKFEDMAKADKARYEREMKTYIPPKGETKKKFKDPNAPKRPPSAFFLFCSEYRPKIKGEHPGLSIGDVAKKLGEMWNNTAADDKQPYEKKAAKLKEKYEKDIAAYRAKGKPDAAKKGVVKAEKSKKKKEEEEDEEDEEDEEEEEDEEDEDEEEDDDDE

T2: HMG1 purified from bovine (calf) thymus (bovine, UniProt P10103 2-215)
T2 construct: also called Calf thymus HMGB1; thymus HMG1
T2 sequence (looked up): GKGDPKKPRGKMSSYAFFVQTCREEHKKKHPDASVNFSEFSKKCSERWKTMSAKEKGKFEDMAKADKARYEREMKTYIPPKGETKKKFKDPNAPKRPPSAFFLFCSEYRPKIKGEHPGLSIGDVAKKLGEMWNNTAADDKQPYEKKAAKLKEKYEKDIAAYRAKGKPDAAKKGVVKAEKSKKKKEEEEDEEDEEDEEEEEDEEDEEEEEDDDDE

T3: HMG2 (UniProt P40673 2-209, limits assumed)
T3 construct: also called HMGB2; HMBG2
T3 sequence (looked up): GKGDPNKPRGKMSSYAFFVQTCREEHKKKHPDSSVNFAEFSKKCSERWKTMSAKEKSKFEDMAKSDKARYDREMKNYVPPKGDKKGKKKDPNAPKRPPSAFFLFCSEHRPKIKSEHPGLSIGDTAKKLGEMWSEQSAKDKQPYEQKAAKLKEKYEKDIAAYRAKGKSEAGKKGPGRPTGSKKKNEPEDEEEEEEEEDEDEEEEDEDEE

T4: HMG1 B Box peptide amino acids 150-183
T4 peptide: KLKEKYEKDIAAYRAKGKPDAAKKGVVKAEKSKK


What was measured:
[1] = molecular target: T1, recombinant HMG1 purified from E. coli …; experiment: ELISA, rHMG1 preincubated with antibody, coated RAGE-Fc
Experimental: HMG1 binding to RAGE-Ig by ELISA: 50 μl/well of RAGE-Fc fusion protein at 5 μg/ml in PBS was added to each well of an ELISA plate and incubated overnight at 4° C. The plate was then blocked with 200 μl of 5% milk at 37° C. for 1 hr and washed 3× with PBS/Tween. 50 μl/well of diluted HMGB1 solution. For dose curves, HMGB1 concentrations started at 4 ug/ml in PBS. For antibody blocking the HMGB1 was preincubated in another plate with human anti-HMG1 antibodies or buffer, then transferred to the RAGE-coated plate. The plates were then incubated at room temperature for 2 hours and washed 3×. To detect any HMG1 bound to the immobilized RAGE-Fc a mixture of biotinylated mouse anti-HMG1 mAbs (10D4, 4H11, 3E10 and 5C12) each at 1 ug/ml, total Ab: 4 ug/ml, were added to each well and the plate was incubated for 1 hour at room temperature. The plate was then washed and Strepavidin-HPR was added to each well and incubated 15 min. The plate was then washed 3× and blotted dry. 100 μl of TMB developing agent was added and the plate read at 650 nm. Values were calculated as percent of inhibition with HMG1 alone equal to 0% inhibition. The data in FIG. 9 and summarized in Table 1 represent the average of two separate experiments.

[2] = molecular target: T1, recombinant HMG1 purified from E. coli …; experiment: BIAcore, mAb immobilized, HMG1 injected, steady-state model
Outline: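 Each mAb amine-coupled to a CM5 chip beside a reference flow cell. Twofold serial dilutions of recombinant HMG1 were injected at slow flow, and surfaces regenerated with 1M NaCl-50 mM NaOH. Affinity was derived from binding curves fitted to a steady-state model.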

[3] = molecular target: T2, HMG1 purified from bovine (calf) thymus; experiment: ELISA, wells coated with calf thymus HMGB1 at 5 ug/mL, antibody at 10 ug/mL, anti-human kappa/lambda-HRP, OD 490
Outline: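 Calf thymus HMGB1 or HMGB2 coated at 5 ug/mL in 10 mM PBS pH 7.2 overnight at 4 °C; anti-HMGB1 antibody added at 10 ug/mL final in PBS + 1% BSA, 1 h at room temperature. Detection with HRP anti-human kappa plus lambda (1:1000, 1 h), OPD substrate 20-30 min in the dark, H₂SO₄ stop, absorbance 490 nm.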

HMG2 = molecular target: T3, HMG2; experiment: ELISA, wells coated with HMGB2 at 5 ug/mL, OD 490
Experimental: Binding to HMG1 vs. HMG2: Ultra high-binding ELISA plates (ThermoLab systems, #3855) were coated with either 5 ug/mL of Calf thymus HMGB1 or HMBG2 diluted in 10 mM Phosphate buffered saline (PBS), pH 7.2 and incubate overnight at 4 degrees. The plates were washed twice with Ca and Mg free PBS and 100 microliters of anti-HMGB1 antibody diluted in 10 mM PBS, pH 7.2+1% bovine serum albumin (BSA) to a final concentration of 10 ug/mL was added to each well and the plates were incubated 1 hour at room temperature. The wells were washed three times with 100 μl of PBS, pH 7.2. HRP labeled goat-anti-human IgG Kappa-chain (KPL, #14-10-10) and goat-anti-human IgG Lambda-chain (KPL, #14-10-11) were diluted in 10 mM PBS+1% BSA 1:1000 and 100 μl were added to each well and incubated for 1 hour at room temperature. The wells were then washed three times with 100 μl of PBS, pH 7.2. OPD substrate (Pierce chemical company, #34006) was prepared following the manufacturers instructions and 100 μl of prepared substrate was added to each well and the plates incubated at room temperature in the dark for 20-30 minutes. The reaction was stopped with the addition of 100 μl of 2M H₂SO₄, and the plates read on a plate reader at a wavelength of 490 nm.

[4] = molecular target: T4, HMG1 B Box peptide amino acids 150-183; experiment: ELISA, wells coated with HMG1 B Box peptide 150-183 at 10 ug/ml
Outline: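 Biotinylated peptides captured on avidin-coated wells (1% BSA block, 30 min, room temperature), then antibodies added in serial dilution from 10 μg/ml; for the coated-peptide format, plates blocked with 4% milk/PBS 1 h at 37 °C. Bound antibody detected with anti-human IgG-HRP and TMB, absorbance at 450 nm.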

Binder	percent inhibition of HMG1 binding to RAGE-Fc [1] [%]	Kd [2] [nM]	binding result [3]	binding result (HMG2)	binding result [4]
anti-HMG1 antibody S16 (antibody, V domains shown, also called ATCC PTA-6259) VH: EVQLLESGGGLVQPGGSLRLSCAASGFTFSWYSMLWVRQAPGKGLEWVSYISPSGGFTNYADSVKGRFTISRDNSKNTLYLQMNSLRAEDTAVYYCARWDYNSGWYYDHWGQGTLVTVSS VL: DIQMTQSPDTLSLSPGERATLSCRASQSVNSRNLAWYQQKPGQAPRLLIYGASTRATGIPDRFSGSVSGTEFTLTISSLQPDDFATYYCQQYNSYFTFGQGTKLEIK	≥ 35	23	binds	–	–
anti-HMG1 antibody G4 (antibody, V domains shown, also called ATCC PTA-6258) VH: EVQLLESGGGLVQPGGSLRLSCAASGFTFSWYDMTWVRQAPGKGLEWVSSISPSGGYTKYADSVKGRFTISRDNSKNTLYLQMNSLRAEDTAVYYCTTEFYDYLDVWGKGTTVTVSS VL: DIQMTQSPGTLSLSPGEGATLSCRASQSVSSTYLAWYQQKPGQAPRLLIYEASKRATGTPARFSGSGSGTDFTLSISSLEPEDFAVYYCQHRHNWPPQWTFGQGTKVEVK	–	30	binds	no binding (tested: 10 ug/mL (not on the sheet))	no binding (tested: 10 ug/ml (log 1.00))
anti-HMG1 antibody S2 (antibody, V domains shown, also called ATCC PTA-6142) VH: EVQLLESGGGLVQPGGSLRLSCAASGFTFSGYMMVWVRQAPGKGLEWVSRISPSGGQTGYADSVKGRFTISRDNSKNTLYLQMNSLRAEDTAVYYCAREEGGSYGAFDIWGQGTMVTVSS VL: not shown	≥ 35	36	binds	no binding (tested: 10 ug/mL (not on the sheet))	no binding (tested: 10 ug/ml (log 1.00))
anti-HMG1 antibody S6 (antibody, V domains shown, also called ATCC PTA-6143) VH: EVQLLESGGGLVQPGGSLRLSCAASGFTFSWYDMSWVRQAPGKGLEWVSRISPSGGYTMYADSVKGRFTISRDNSKNTLYLQMNSLRAEDTAVYYCARLEVGATSGGTAFDIWGQGTMVTVSS VL: not shown	≥ 35	39	binds	no binding (tested: 10 ug/mL (not on the sheet))	no binding (tested: 10 ug/ml (log 1.00))
